Test results: patent publication US20180080021

Target: polymerized microtubules

B1: recombinant R293W mutant KIF3B motor domain (amino acids 1-365) with N-terminal 6x-Histidine tag (protein)
chain: MSKLKSSESVRVVVRCRPMNGKEKAASYDKVVDVDVKLGQVSVKNPKGTAHEMPKTFTFDAVYDWNAKQFELYDETFRPLVDSVLQGFNGTIFAYGQTGTGKTYTMEGIRGDPEKRGVIPNSFDHIFTHISRSQNQQYLVRASYLEIYQEEIRDLLSKDQTKRLELKERPDTGVYVKDLSSFVTKSVKEIEHVMNVGNQNRSVGATNMNEHSSRSHAIFVITIECSEVGLDGENHIRVGKLNLVDLAGSERQAKTGAQGERLKEATKINLSLSALGNVISALVDGKSTHIPYWDSKLTRLLQDSLGGNAKTVMVANVGPASYNVEETLTTLRYANRAKNIKNKPRVNEDPKDALLREFQEEIARL
**Q.** With B1 as the protein, how does the “rate of ATP hydrolysis (kinesin ATPase end-point assay, free phosphate) with increasing amounts of microtubules” value read?
**A.** When compared to wild-type, the mutant motor domain displayed a significantly reduced rate of ATP hydrolysis upon incubation with various concentrations of microtubules
